Laboratory results: paper PMC3479137
pKd: −log10 of the molar value.

Legend:
[1] = target: fHbp subfamily B (Neisseria meningitidis) (UniProt Q9JXV4); settings: cited from earlier work
[2] = target: fHbp subfamily A (Neisseria meningitidis) (UniProt Q9JXV4); settings: cited from earlier work
[3] = target: fHbp_10 (1.P10) with D184 replaced by K184 (Neisseria meningitidis); assay: SPR; ProteOn XPR36 (BioRad); fHbp immobilized on a ProteOn GLM sensor chip; increasing concentrations of fH67 injected at 40 µl/min, dissociation 300 seconds; KD calculated with ProteOn manager software; average KD
[4] = target: fHbp_10 (1.P10), factor H binding protein with aspartic acid at position 184 (Neisseria meningitidis) (UniProt E6MV22); assay: as above
Chain of fHbp_10 (1.P10), factor H binding protein with aspartic acid at position 184 (Neisseria meningitidis) (E6MV22 20-274): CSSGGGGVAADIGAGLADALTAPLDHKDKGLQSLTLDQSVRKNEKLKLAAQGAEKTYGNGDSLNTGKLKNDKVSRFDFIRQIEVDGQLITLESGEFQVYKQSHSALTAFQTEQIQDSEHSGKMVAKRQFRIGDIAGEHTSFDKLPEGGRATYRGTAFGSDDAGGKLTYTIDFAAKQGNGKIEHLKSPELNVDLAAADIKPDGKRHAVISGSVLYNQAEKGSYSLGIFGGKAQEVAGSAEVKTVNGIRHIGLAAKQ

Chain of factor H (P08603 19-1231): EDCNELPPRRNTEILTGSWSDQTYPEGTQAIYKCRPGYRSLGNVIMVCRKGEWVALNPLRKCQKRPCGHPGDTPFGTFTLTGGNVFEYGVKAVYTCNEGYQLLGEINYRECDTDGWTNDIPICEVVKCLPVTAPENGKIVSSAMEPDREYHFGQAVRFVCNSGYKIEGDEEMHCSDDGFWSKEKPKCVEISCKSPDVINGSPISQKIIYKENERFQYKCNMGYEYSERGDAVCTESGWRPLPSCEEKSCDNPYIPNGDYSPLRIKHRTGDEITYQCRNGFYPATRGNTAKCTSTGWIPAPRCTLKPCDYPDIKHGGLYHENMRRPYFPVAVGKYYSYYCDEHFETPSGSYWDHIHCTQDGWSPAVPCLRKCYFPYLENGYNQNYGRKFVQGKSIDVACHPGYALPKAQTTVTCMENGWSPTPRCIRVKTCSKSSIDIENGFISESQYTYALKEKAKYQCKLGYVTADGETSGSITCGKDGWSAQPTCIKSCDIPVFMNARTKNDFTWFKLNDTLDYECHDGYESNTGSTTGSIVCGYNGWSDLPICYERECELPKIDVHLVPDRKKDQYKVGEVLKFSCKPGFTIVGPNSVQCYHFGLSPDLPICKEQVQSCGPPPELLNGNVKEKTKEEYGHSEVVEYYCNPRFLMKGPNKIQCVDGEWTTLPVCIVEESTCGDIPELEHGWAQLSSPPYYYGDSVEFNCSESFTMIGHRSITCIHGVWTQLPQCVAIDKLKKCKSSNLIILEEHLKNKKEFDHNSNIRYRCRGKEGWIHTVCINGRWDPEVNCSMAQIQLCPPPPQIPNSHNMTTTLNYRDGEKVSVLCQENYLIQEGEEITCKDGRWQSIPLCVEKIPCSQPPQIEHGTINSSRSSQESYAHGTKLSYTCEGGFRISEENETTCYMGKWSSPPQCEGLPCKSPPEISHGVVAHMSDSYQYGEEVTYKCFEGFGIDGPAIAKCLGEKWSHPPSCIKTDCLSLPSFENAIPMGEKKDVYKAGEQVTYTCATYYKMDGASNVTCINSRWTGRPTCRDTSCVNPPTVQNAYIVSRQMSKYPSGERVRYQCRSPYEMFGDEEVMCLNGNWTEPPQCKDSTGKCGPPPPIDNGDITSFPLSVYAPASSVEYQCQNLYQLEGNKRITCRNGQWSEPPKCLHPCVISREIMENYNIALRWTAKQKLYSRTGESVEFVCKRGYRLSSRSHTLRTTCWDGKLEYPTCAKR
Chain of fHbp subfamily A (Neisseria meningitidis) (Q9JXV4 20-274): as the sequence (E6MV22 20-274) above
Chain of fHbp subfamily B (Neisseria meningitidis) (Q9JXV4 20-274): as the sequence (E6MV22 20-274) above

Substance | pKd [1] | pKd [2] | pKd [3] | pKd [4]
factor H (from UniProt P08603) | 6.82 | 7.54 |  | 
recombinant purified human fH (SCR67) (from UniProt P08603 19-1231) (domain or fragment) |  |  | 7.59 | 7.76
